Laboratory results published in the supplement of paper PMC10471632, “Protein engineering and iterative multimodule optimization for vitamin B6 production in Escherichia coli” (Nature Communications, 2023).
± gives the standard deviation of the averaged measurements.

B1: library; numbered along this chain (parent)
chain: MAELLLGVNIDHIATLRNARGTAYPDPVQAAFIAEQAGADGITVHLREDRRHITDRDVRILRQTLDTRMNLEMAVTEEMLAIAVETKPHFCCLVPEKRQEVTTEGGLDVAGQRDKMRDACKRLADAGIQVSLFIDADEEQIKAAAEVGAPFIEIHTGCYADAKTDAEQAQELARIAKAATFAASLGLKVNAGHGLTYHNVKAIAAIPEMHELNIGHAIIGRAVMTGLKDAVAEMKRLMLEARG

Variants of: B1
Assay: pyridoxine titer in culture supernatant of strain expressing the PdxJ variant; higher = more PN produced (higher in vivo pathway activity of the PdxJ variant)
Conditions: host strain: E. coli LL006; 48 h; temperature: 37 °C; FM1.4
Description: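 Rosetta-designed single to quadruple mutants of E. coli PdxJ (PNP synthase) were expressed from pRSFDuet-1 in the engineered chassis E. coli LL006 (MG1655 ΔpdxH::pdxST, pta::Eme_pdxP). Strains were grown in 24 deep-well plates in 2 mL FM1.4 glycerol medium at 37 °C and 800 rpm for 48 h. Extracellular pyridoxine (PN) titer was quantified by HPLC with fluorescence detection; two biological replicates, with the WT pdxJ strain (LL137, about 0.5 mg/L) as control.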

Point of comparison: MAELLLGVNLDHIATLRNARGTTYPDPVQAAFIAEQAGADGITVHLREDRRHITDRDVRILRQTLDTRMNLEMAVTEEMLAIAVETKPHFCCLVPEKRQEVTTTGGLDVAGQRDKMRDACKRLADAGIQVSLFIDADEEQIKAAAEVGAPFIEIHTGCYADAKTDAEQAQELARIAKAATFAASLGLKVNAGHGLTYHNVKAIAAIPEMHELNIGHAIIGRAVMTGLKDAVAEMKRLMLEARG [I10L A23T E104T], pyridoxine titer 6.49 ± 0.071 mg/L. Against it:
- MAELLLGVNLDHIITLRNARGTAYPDPVQAAFIAEQAGADGITVHLREDRRHITDRDVRILRQTLDTRMNLEMAVTEEMLAIAVETKPHFCCLVPEKRQELTTEGGLDVAGQRDKMRDACKRLADAGIQVSLFIDADEEQIKAAAEVGAPFIEIHTGCYADAKTDAEQAQELARIAKAATFAASLGLKVNAGHGLTYHNVKAIAAIPEMHELNIGHAIIGRAVMTGLKDAVAEMKRLMLEARG [I10L A14I V101L] — 21-fold lower, 0.31 ± 0.014 mg/L
- MAELLLMVNIDHIATLRNARGTAYPDPVQAAFIAEQAGADGITVHLREDRRHITDRDVRILRQTLDTRMNLEMAVTEEMLAIAVETKPHFCCLVPEKRQEVTTTGGLDVAGQRDKMRDACKRLADAGIQVSLFIDADEEQIKAAAEVGAPFIEIHTGCYADAKTDAEQAQELARIAKAATFAASLGLKVNAGHCLTYHNVKAIAAIPEMHELNIGHALIGRAVMTGLKDAVAEMKRLMLEARG [G7M E104T G194C I218L] — 6.8-fold lower, 0.955 ± 0.033 mg/L
- MAELLLGVNLDHIATLRNARGTTYPDPVQAAFIAEQAGADGITVHLREDRRHITDRDVRILRQTLDTRMNLEMAVTEEMLAIAVETKPHFCCLVPEKRQELTTTGGLDVAGQRDKMRDACKRLADAGIQVSLFIDADEEQIKAAAEVGAPFIEIHTGCYADAKTDAEQAQELARIAKAATFAASLGLKVNAGHGLTYHNVKAIAAIPEMHELNIGHAIIGRAVMTGLKDAVAEMKRLMLEARG [I10L A23T V101L E104T] — 25-fold lower, 0.257 ± 0.014 mg/L
- MAELLLGVNLDHIATLRNLRGTTYPDPVQAAFIAEQAGADGITVHLREDRRHITDRDVRILRQTLDTRMNLEMAVTEEMLAIAVETKPHFCCLVPEKRQEVTTEGGLDVAGQRDKMRDACKRLADAGIQVSLFIDADEEQIKAAAEVGAPFIEIHTGCYADAKTDAEQAQELARIAKAATFAASLGLKVNAGHGLTYHNVKAIAAIPEMHELNIGHAIIGRAVMTGLKDAVAEMKRLMLEARG [I10L A19L A23T] — 32-fold lower, 0.2 ± 0.028 mg/L
- MAELLLGVNLDHIATLRNARGTTYPDPVQAAFIAEQAGADGITVHLREDRRHITDRDVRILRQTLDTRMNLEMAVTEEMLAIAVETKPHFCCLVPEKRQEVTTEGGLDVAGQRDKMRDACKRLADAGIQVSLFIDADEEQIKAAAEVGAPFIEIHTGCYADAKTDAEQAQELARIAKAATFAASLGLKVNAGHGLTYHNVKAIAAIPEMHELNIGHAIIGRAVMTGLKDAVAEMKRLMLEARG [I10L A23T] — 4.7-fold lower, 1.39 ± 0.2 mg/L
- MAELLLGVNLDHIATLRNARGTTYPDPVQAAFIAEQAGADGITVHLREDRRHITDRDVRILRQTLDTRMNLEMAVTEEMLAIAVETKPHFCCLVPEKRQEVTTTGGLDVAGQRDKMRDACKRLADAGIQVSLFIDADEEQIKAAAEVGAPFIEIHTGCYADAKTDAEQAQELARIAKAATFAASLGLKVNAGHGLTYHNVKAIAAIPEMHELNIGHAICGRAVMTGLKDAVAEMKRLMLEARG [I10L A23T E104T I219C] — 2-fold lower, 3.27 ± 0.22 mg/L
- MAELLLGVNLDHIATLRNARGTAYPDPVQAAFIAEQAGADGITVHLREDRRHITDRDVRILRQTLDTRMNLEMAVTEEMLAIAVETKPHFCCLVPEKRQEVTTEGGLDVAGQRDKMRDACKRLADAGIQVSLFIDADEEQIKAAAEVGAPFIEIHTGCYADAKTDAEQAQELARIAKAATFAASLGLKVNAGHGLTYHNVKAIAAIPEMHELNIGHAIIGRAVMTGLKDAVAEMKRLMLEARG [I10L] — 2.3-fold lower, 2.82 ± 0.43 mg/L
- MAELLLLVNIDHIATLRNARGTAYPDPVQAAFIAEQAGADGITVHLREDRRHITDRDVRILRQTLDTRMNLEMAVTEEMLAIAVETKPHFCCLVPEKRQEVTTTGGLDVAGQRDKMRDACKRLADAGIQVSLFIDADEEQIKAAAEVGAPFIEIHTGCYADAKTDAEQAQELARIAKAATFAASLGLKVNAGHGLTYHNVKAIAAIPEMHELNIGHAIIGRAVMTGLKDAVAEMKRLMLEARG [G7L E104T] — 10-fold lower, 0.65 ± 0.014 mg/L
- MAELLLGVNLDHIATLRNARGTTYPDPVQAAFIAEQAGADGITVHLREDRRHITDRDVRILRQTLDTRMNLEMAVTEEMLAIAVETKPHFCCLVPEKRQEVTTEGGLDVAGQRDKMRDACKRLADAGIQVSLFIDADEEQIKAAAEVGAPFIEIHTGCYADAKTDAEQAQELARIAKAATFAASLGLKVNAGHCLTYHNVKAIAAIPEMHELNIGHAIIGRAVMTGLKDAVAEMKRLMLEARG [I10L A23T G194C] — 5.1-fold lower, 1.27 ± 0.028 mg/L
- MAELLLLVNIDHIATLRNARGTAYPDPVQAAFIAEQAGADGITVHLREDRRHITDRDVRILRQTLDTRMNLEMAVTEEMLAIAVETKPHFCCLVPEKRQEVTTEGGLDVAGQRDKMRDACKRLADAGIQVSLFIDADEEQIKAAAEVGAPFIEIHTGCYADAKTDAEQAQELARIAKAATFAASLGLKVNAGHGLTYHNVKAIAAIPEMHELNIGHALIGRAVMTGLKDAVAEMKRLMLEARG [G7L I218L] — 8.5-fold lower, 0.76 mg/L
- MAELLLIVNIDHIATLRNARGTAYPDPVQAAFIAEQAGADGITVHLREDRRHITDRDVRILRQTLDTRMNLEMAVTEEMLAIAVETKPHFCCLVPEKRQEVTTTGGLDVAGQRDKMRDACKRLADAGIQVSLFIDADEEQIKAAAEVGAPFIEIHTGCYADAKTDAEQAQELARIAKAATFAASLGLKVNAGHCLTYHNVKAIAAIPEMHELNIGHALIGRAVMTGLKDAVAEMKRLMLEARG [G7I E104T G194C I218L] — 2.8-fold lower, 2.32 ± 0.19 mg/L
